Our source for the EC50 (read off the curve) values is patent US20240076361A1.

In the assay the target is Tau from human Alzheimer's Disease brain lysate (Braak stage VI) (human), P10636. The experiment in a line: ELISA on Tau captured from AD brain lysate, curve without blocking peptide. The settings on record: remark: other sources report otherwise.
Chain of Tau from human Alzheimer's Disease brain lysate (Braak stage VI) (human), P10636 (P10636 other isoform, or with tags, fused parts or gaps limits assumed): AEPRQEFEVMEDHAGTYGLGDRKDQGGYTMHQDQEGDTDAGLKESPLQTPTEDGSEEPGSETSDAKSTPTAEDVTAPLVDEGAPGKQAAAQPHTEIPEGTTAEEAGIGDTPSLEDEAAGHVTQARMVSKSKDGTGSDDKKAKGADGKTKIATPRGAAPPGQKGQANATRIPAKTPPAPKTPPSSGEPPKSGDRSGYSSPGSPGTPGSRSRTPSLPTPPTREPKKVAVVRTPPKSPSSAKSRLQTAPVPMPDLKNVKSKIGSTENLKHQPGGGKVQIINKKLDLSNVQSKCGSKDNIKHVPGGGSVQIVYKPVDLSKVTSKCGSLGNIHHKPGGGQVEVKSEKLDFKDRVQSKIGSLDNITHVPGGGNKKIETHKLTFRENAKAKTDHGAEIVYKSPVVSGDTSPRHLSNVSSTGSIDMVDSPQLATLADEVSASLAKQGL

B1: PT3 comparator antibody (antibody)
chain 1: EVKLVESGGDLVKPGGSLKLSCAASGFTFSSYAMSWVRQNPEKRLEWVASISKGGNTYYPNSVKGRFTISRDNARNILYLQMSSLRSEDTALYYCARGWGDYGWFAYWGQVTLVTVSA
chain 2: DIKMTQSPSSMYASLGERVTITCKASQDINRYLNWFQQKPGKSPKTLIYRANRLLDGVPSRFSGSGSGQDYSLTISSLDYEDMGIYYCLQYDEFPLTFGDGTKLELK
modifications: here or on the partner: native phosphorylation and other post-translational modifications, not defined
In the case of B1, the 50% effective concentration (EC50 (read off the curve)) was 20 pM.
